# Measurements published in patent US20180263964A1 (MINERVA BIOTECHNOLOGIES, published 2018).
# Tests used:
# full-length MUC1 [1] = molecular target: T1, full-length MUC1 (human, UniProt P15941 24-1255, limits assumed); assay: co-immunoprecipitation gel stripped and re-probed with an anti-MUC1* (PSMGFR) antibody
# T1 construct: also called full-length MUC1 Receptor; Mucin 1 precursor
# full-length MUC1 [2] = molecular target: T1, full-length MUC1; assay: co-immunoprecipitation with Ab5 from human iPS and HES cell lysates, Western blot for NME7
# T1 sequence (P15941 other isoform, or with tags, fused parts or gaps limits assumed): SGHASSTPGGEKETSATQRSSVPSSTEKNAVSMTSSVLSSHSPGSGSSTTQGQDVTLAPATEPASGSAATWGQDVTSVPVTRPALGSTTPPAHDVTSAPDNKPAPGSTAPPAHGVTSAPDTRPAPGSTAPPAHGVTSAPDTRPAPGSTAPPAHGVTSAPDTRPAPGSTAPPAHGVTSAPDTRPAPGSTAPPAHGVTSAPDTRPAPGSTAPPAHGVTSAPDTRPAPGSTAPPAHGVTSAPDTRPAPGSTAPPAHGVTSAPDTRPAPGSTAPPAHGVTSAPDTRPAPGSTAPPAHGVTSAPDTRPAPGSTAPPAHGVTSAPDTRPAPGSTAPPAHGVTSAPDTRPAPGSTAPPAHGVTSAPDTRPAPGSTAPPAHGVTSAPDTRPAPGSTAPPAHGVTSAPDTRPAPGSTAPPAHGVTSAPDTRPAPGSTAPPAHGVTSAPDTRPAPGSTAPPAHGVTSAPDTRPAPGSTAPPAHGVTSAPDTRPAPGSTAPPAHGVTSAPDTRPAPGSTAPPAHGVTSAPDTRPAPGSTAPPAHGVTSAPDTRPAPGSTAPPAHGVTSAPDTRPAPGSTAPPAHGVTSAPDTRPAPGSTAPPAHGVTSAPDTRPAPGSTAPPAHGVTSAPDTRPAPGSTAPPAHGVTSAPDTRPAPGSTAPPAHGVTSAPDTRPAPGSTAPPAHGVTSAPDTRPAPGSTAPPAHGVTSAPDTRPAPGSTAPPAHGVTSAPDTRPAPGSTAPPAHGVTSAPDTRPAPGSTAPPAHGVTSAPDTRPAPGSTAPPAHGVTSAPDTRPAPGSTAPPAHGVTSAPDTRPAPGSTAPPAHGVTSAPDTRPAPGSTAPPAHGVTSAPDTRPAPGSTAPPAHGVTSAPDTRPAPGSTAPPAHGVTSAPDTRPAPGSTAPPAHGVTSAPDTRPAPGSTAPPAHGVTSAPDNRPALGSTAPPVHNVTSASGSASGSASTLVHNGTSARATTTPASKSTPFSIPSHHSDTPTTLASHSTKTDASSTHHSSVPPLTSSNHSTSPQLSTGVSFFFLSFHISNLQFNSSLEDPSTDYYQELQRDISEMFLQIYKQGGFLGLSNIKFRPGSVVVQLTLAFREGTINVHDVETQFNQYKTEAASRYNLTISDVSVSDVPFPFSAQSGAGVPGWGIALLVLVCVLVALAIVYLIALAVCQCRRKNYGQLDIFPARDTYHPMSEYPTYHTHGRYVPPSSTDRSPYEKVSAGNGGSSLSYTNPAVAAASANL
Binder,binding result (full-length MUC1 [1]),binding result (full-length MUC1 [2])
"NME7AB (ligand, In the co-immunoprecipitations and Western blots this is the endogenous 33 kDa species of cell lysates; also called human NME7-AB; 33 kDa NME7-reactive species) MEKTLALIKPDAISKAGEIIEIINKAGFTITKLKMMMLSRKEALDFHVDHQSRPFFNELIQFITTGPIIAMEILRDDAICEWKRLLGPANSGVARTDASESIRALFGTDGIRNAAHGPDSFASAAREMELFFPSSGGCGPANTAKFTNCTCCIVKPHAVSEGLLGKILMAIRDAGFEISAMQMFNMDRVNVEEFYEVYKGVVTEYHDMVTEMYSGPCVAMEIQQNNATKTFREFCGPADPEIARHLRPGTLRAIFGKTKIQNAVHCTDLPEDGLLEVQYFFKILDN",no binding,–
"NME7-X1 (ligand, Alternative splice isoform of NME7; In the blots it is the endogenous 30 kDa species of cell lysates; also called human NME7-X1; 30 kDa NME7-reactive species) MMMLSRKEALDFHVDHQSRPFFNELIQFITTGPIIAMEILRDDAICEWKRLLGPANSGVARTDASESIRALFGTDGIRNAAHGPDSFASAAREMELFFPSSGGCGPANTAKFTNCTCCIVKPHAVSEGLLGKILMAIRDAGFEISAMQMFNMDRVNVEEFYEVYKGVVTEYHDMVTEMYSGPCVAMEIQQNNATKTFREFCGPADPEIARHLRPGTLRAIFGKTKIQNAVHCTDLPEDGLLEVQYFFKILDN",no binding,–
"full-length NME7, 42 kDa (other, UniProt Q9Y5B8 1-376, looked up, Endogenous 42 kDa protein in cell lysates; also called native NME7) MNHSERFVFIAEWYDPNASLLRRYELLFYPGDGSVEMHDVKNHRTFLKRTKYDNLHLEDLFIGNKVNVFSRQLVLIDYGDQYTARQLGSRKEKTLALIKPDAISKAGEIIEIINKAGFTITKLKMMMLSRKEALDFHVDHQSRPFFNELIQFITTGPIIAMEILRDDAICEWKRLLGPANSGVARTDASESIRALFGTDGIRNAAHGPDSFASAAREMELFFPSSGGCGPANTAKFTNCTCCIVKPHAVSEGLLGKILMAIRDAGFEISAMQMFNMDRVNVEEFYEVYKGVVTEYHDMVTEMYSGPCVAMEIQQNNATKTFREFCGPADPEIARHLRPGTLRAIFGKTKIQNAVHCTDLPEDGLLEVQYFFKILDN",–,no binding
